The target of assay [1] is HA of A/California/04/2009 (H1N1pdm09) (influenza A virus A/California/04/2009 (H1N1pdm09)).
Assay [2] shares this target. As to the kind of experiment: cell-based or functional assay.
Assay [3] addresses HA of Perth/16 (H3N2) virus (influenza A virus A/Perth/16/2009 (H3N2)). As to the kind of experiment: cell-based or functional assay.
Assay [4] has as its target recombinant HA protein of A/California/07/2009 (H1N1pdm09) (influenza A virus A/California/07/2009 (H1N1pdm09)).
Assay [5] concerns the target recombinant HA protein of A/Perth/16/2009 (H3N2) (influenza A virus A/Perth/16/2009 (H3N2)).
The target in assay [6] is recombinant HA protein of A/Netherland/219/2003 (H7N7) (influenza A virus A/Netherland/219/2003 (H7N7)).
Assay [7] has as its target recombinant HA protein of Egypt (H5N1 type) (influenza A virus, 'Egypt' (H5N1)).
Assay [8] concerns the target three viruses, CA04, Egypt, and Anhui/1. As to the kind of experiment: cell-based or functional assay.

With CR9114 (antibody), in assay [1], the apparent rate constant k obs, fold over that of S9-1-10/5-1 was 11.6 fold. Also, the values for the IC 50, neutralization test 1 (Pre), CPE on MDCK cells in assay [2] and in assay [3] were 7.4 µg/mL and 25 µg/mL, respectively.

B1: S9-1-10/5-1 (antibody, V domains shown)
VH: QLHLQESGPGLLKPSATLSLTCTVSGGSMNNYYWSWVRQAPGKGLEWIGYIFHSGSTNYSPPLKSRVTISIDTATNQFFLRLNSVTAADTAVYYCARMSRGVFSSSRFFGLDVWGRGTAVAVSS
VL: EIVLTQSPATLSVSPGERATLSCRASQSVASNLAWYQQKPGQAPRLLISAASTRATDIPARFSGSGSGTEFTLTISSLQSEDFAVYYCQQYNNWLSFTFGPGTKVDMKG
In the case of B1, the Kd in assay [4] amounted to 8.5 pM; in assay [5], 34 nM; in assay [6], 0.9 nM; in assay [7] it was 0.14 nM. Also, in assay [8], the IC 50, neutralization test 2 (Post), CPE on MDCK cells lay in the range of 0.55 to 8.8 µg/mL.

The values above are taken from patent WO2018038096A1.
